The experiment concerns the target GH1 β-glucosidase from Spodoptera frugiperda (Sfβgly), wild-type (Spodoptera frugiperda). Put plainly: P100 buffer, pH 6, 5°C, protein sample 3 (SEC).

B1: GH1 β-glucosidase from Spodoptera frugiperda (Sfβgly), wild-type (enzyme)
chain: QQRRFPDDFLFGTATASYQIEGAWDEDGKGENIWDYMVHNTPEVIRDLSNGDIAADSYHNYKRDVEMMRELGLDAYRFSLSWARILPTGMANEVNPAGIAFYNNYIDEMLKYNITPLITLYHWDLPQKLQELGGFANPLISDWFEDYARVVFENFGDRVKMFITFNEPREICFEGYGSATKAPILNATAMGAYLCAKNLVTAHAKAYYLYDREFRPVQGGQCGITISVNWFGPATPTPEDEMAAELRRQGEWGIYAHPIFSAEGGFPKELSDKIAEKSAQQGYPWSRLPEFTEEEKAFVRGTSDFFGVNHYTAFLVSATERKGPYPVPSLLDDVDTGSWADDSWLKSASAWLTLAPNSIHTALTHLNNLYNKPVFYITENGWSTDESRENSLIDDDRIQYYRASMESLLNCLDDGINLKGYMAWSLMDNFEWMEGYIERFGLYEVDFSDPARTRTPRKAAFVYKHIIKHRVVDYEYEPETMVMTIDEGH
modifications: Monomer given, self-associates to a C2 homodimer. Limits by convention from the 5CG0 entity; paper numbering = entity + 20 (precursor numbering) Monomer given, self-associates to a C2 homodimer. Limits by convention from the 5CG0 entity; paper numbering = entity + 20 (precursor numbering)
B1: the Kd (usually the equilibrium constant for the complex coming apart) was found to be 5.5 µM.

These data come from paper PMC12368724 (2025).
